Measurements from paper PMC4937323.
Read-outs that look alike come from different tables or passages of the source.

How the values were obtained:
Aro2 [1] = biological target: T1, Aro2 (Homo sapiens, UniProt P27694;P15927;P35244 1-616;1-270;1-121, F269A;F386A); assay: smTIRFM
[2] = biological target: RPA (wild-type, biotinylated on RPA3) (Homo sapiens, UniProt P27694;P15927;P35244 1-616;1-270;1-121); assay: EMSA
AroA = AroA (Homo sapiens, UniProt P27694;P15927;P35244 1-616;1-270;1-121, F238A;F269A); assay: smTIRFM
AroA, sequence (P27694 whole entry F238A/F269A, chain 1 of 3): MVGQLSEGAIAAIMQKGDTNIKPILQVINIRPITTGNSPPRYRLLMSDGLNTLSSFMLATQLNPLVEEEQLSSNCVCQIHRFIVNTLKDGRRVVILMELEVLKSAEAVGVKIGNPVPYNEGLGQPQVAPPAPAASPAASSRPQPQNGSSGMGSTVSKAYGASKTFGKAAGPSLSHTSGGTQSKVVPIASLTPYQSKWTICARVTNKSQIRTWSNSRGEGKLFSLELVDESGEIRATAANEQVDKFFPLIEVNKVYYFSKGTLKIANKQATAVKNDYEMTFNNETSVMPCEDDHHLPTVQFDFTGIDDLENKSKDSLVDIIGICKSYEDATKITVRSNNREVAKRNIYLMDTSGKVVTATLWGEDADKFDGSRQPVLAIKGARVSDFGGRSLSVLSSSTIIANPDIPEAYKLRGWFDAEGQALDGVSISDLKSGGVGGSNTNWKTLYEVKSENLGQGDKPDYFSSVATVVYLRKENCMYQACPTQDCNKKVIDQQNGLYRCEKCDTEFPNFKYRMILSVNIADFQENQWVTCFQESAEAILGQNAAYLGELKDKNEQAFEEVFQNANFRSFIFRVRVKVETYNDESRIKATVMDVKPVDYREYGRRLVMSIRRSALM
AroA, sequence (P15927 whole entry, chain 2 of 3): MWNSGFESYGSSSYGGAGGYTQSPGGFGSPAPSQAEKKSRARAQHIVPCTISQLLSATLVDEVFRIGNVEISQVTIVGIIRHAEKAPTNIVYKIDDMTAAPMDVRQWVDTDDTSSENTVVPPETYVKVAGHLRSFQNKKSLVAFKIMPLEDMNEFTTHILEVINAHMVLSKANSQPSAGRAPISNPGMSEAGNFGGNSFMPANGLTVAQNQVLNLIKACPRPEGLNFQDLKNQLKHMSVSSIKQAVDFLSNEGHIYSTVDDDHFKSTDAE
AroA, sequence (P35244 whole entry, chain 3 of 3): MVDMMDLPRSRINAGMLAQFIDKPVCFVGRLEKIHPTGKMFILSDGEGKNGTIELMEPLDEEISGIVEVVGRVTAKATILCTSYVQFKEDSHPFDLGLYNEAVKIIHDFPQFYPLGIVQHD

Aro2 [3] = biological target: T1, Aro2; assay: smTIRFM; remark: listed apart in the source
AroB = AroB (Homo sapiens, UniProt P27694;P15927;P35244 1-616;1-270;1-121, W361A;F386A); assay: smTIRFM
AroB, sequence (P27694 whole entry W361A/F386A, chain 1 of 3): as the sequence (P27694 whole entry F238A/F269A, chain 1 of 3) above, with A238F, A269F, W361A, F386A counted along it
AroB, sequence (P15927 whole entry, chain 2 of 3): as the sequence (P15927 whole entry, chain 2 of 3) above
AroB, sequence (P35244 whole entry, chain 3 of 3): as the sequence (P35244 whole entry, chain 3 of 3) above

T1 sequence (P27694 whole entry F269A/F386A, chain 1 of 3): as the sequence (P27694 whole entry F238A/F269A, chain 1 of 3) above, with A238F, F386A counted along it
T1 sequence (P15927 whole entry, chain 2 of 3): as the sequence (P15927 whole entry, chain 2 of 3) above
T1 sequence (P35244 whole entry, chain 3 of 3): as the sequence (P35244 whole entry, chain 3 of 3) above
RPA (wild-type, biotinylated on RPA3), sequence (P27694 whole entry, chain 1 of 3): as the sequence (P27694 whole entry F238A/F269A, chain 1 of 3) above, with A238F, A269F counted along it
RPA (wild-type, biotinylated on RPA3), sequence (P15927 whole entry, chain 2 of 3): as the sequence (P15927 whole entry, chain 2 of 3) above
RPA (wild-type, biotinylated on RPA3), sequence (P35244 whole entry, chain 3 of 3): as the sequence (P35244 whole entry, chain 3 of 3) above

Question: Does TTTTTTTTTTTTTTTTTTTT (ssDNA) [dT20] bind (Aro2 [1])?
Answer: binds

B1: 20 nt Bubble DNA (mixed)
DNA 1: CCCTAGATACCAGTAAGCCTAAGGCCGGATCTCGGGCCATCCATGTACGC
DNA 2: GCGTACATGGATGGCTTAGAGCTTAATTCCGAATCTACTGGTATCTAGGG
Question: Does B1 bind [2]?
Answer: binds

Question: Does TTTTTTTTTTTTTTT (ssDNA) [dT15] bind (AroA)?
Answer: no binding

Question: Does TTTTTTTTTTTTTTT (ssDNA) [dT15] bind (Aro2 [3])?
Answer: no binding

Question: Does TTTTTTTTTTTTTTT (ssDNA) [dT15] bind (AroB)?
Answer: no binding
